# B1: PCMTD2 (parent)
# chain: FFIRTSDSFDKFDFCEPSFVTGNC
# Variants of: B1
# Experiment: protein stability index of a GFP-peptide fusion (GPS, HEK-293T) (PSI 1-6); higher = more stable
# Details: c terminus: a fixed tail appended
# 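Also: lentivirally expressed fusions sorted by FACS into six bins by GFP to DsRed ratio, PSI derived from sequencing read proportions per bin multiplied by bin number.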
row,Variant,protein stability index
1,V20F,3
2,R4G,1.31
3,D13N,2.42
4,F12D,1.69
5,S8M,1.94
6,I3M,1.98
7,T5E,2.14
8,I3A,1.55
9,I3Q,1.96
10,D10L,2.67
11,F9I,2.47
12,V20Y,1.91
13,R4T,3.27
14,E16K,3.41
15,R4A,3.21
16,F2G,2.41
17,I3K,2.07
18,K11I,3.4
19,D13G,2.78
20,S6E,1.99
21,I3C,1.81
22,K11E,2.95
23,V20Q,1.79
24,V20I,2.54

row,Variant,protein stability index
1,E16C,2.5
2,I3E,2.04
3,E16V,2.9
4,S6Y,2.48
5,F1P,2.6
6,S18A,1.76
7,T21P,3.61
8,S6N,3.26
9,D10F,3.53
10,D10N,2.72
11,F2R,1.65
12,F19T,2.04
13,V20G,1.61
14,C15K,2.43
15,T5C,2.77
16,F14S,1.84
17,S6C,1.99
18,T21I,2.9
19,K11S,3.53
20,V20D,1.76
21,P17Y,3.1
22,S6F,2.43
23,F1R,2.42
24,S8W,4

row,Variant,protein stability index
1,T5I,3.08
2,K11R,3.1
3,F19V,2.06
4,D7L,2.31
5,V20M,2.5
6,C15A,2.24
7,F1N,2.4
8,C15N,2.98
9,E16Q,2.02
10,C15L,3.34
11,R4Y,2.93
12,C24N,1.47
13,F19G,2.16
14,S8A,2.85
15,F1V,2.15
16,V20A,2.2
17,R4S,2.39
18,S8K,1.72
19,N23I,2.13
20,F19R,2.21
21,R4E,2.12
22,F19S,1.66
23,S18C,3.71
24,F2A,2.1

row,Variant,protein stability index
1,F1W,2.04
2,S18I,2.48
3,C15H,2.62
4,E16S,2.04
5,F2L,3.25
6,G22C,2.71
7,F14H,1.94
8,D13H,2.47
9,F1K,2.4
10,D13S,2.57
11,P17M,2.69
12,G22S,2.07
13,F2D,2.71
14,T21F,3.34
15,T5W,2.53
16,F12E,1.92
17,K11N,2.42
18,P17I,2.35
19,F2W,3.73
20,S18K,3.26
21,C24M,3.61
22,K11L,2.42
23,F12K,1.99
24,C24K,1.92

row,Variant,protein stability index
1,S8E,1.91
2,D7T,3.2
3,F2K,2.06
4,S6T,3.34
5,S6D,3.28
6,S18W,3.1
7,F14A,2.31
8,N23P,1.39
9,F12W,3.92
10,F1C,2.93
11,T21D,1.71
12,N23E,2.27
13,P17N,2.05
14,E16D,2.87
15,T21S,2.18
16,I3L,1.73
17,F12C,2.74
18,F14M,2.1
19,I3T,2.1
20,D7E,3.48
21,S8I,2.54
22,E16I,2.85
23,T21K,2.3
24,E16A,2.25

row,Variant,protein stability index
1,T5N,1.75
2,S18E,2.4
3,D13C,2.21
4,G22I,2.8
5,C24R,2.27
6,S6M,2.53
7,F14N,2.27
8,F9W,2.6
9,S6P,2.53
10,D13T,3.18
11,C15W,2.31
12,N23L,3.54
13,G22K,2.1
14,S18V,2.45
15,S18Y,2.11
16,F9A,1.95
17,K11Y,3.27
18,D13E,2.74
19,D7N,2.56
20,F14I,2.31
21,D13A,2.99
22,F9G,2.53
23,D7V,2.77
24,F12R,1.77

row,Variant,protein stability index
1,N23R,2.88
2,S8H,3.25
3,T21E,2.4
4,D7H,1.69
5,D7S,3.69
6,G22P,3.09
7,C24T,2.24
8,F14W,2.71
9,K11F,3.16
10,I3W,2.9
11,C24H,2.43
12,S18L,4.02
13,F1G,2.28
14,F19E,1.67
15,F19Q,1.91
16,F19L,2.26
17,K11M,4.28
18,R4D,2.08
19,N23Y,1.61
20,G22L,2.03
21,S18R,2.39
22,V20T,2.58
23,I3D,2.56
24,F9T,1.7

row,Variant,protein stability index
1,S18M,3.36
2,N23A,2.62
3,P17Q,2.51
4,K11V,3.4
5,S6K,2.59
6,S6A,2.04
7,F1I,1.81
8,C24Q,2.85
9,S6G,2.33
10,F1M,2.32
11,F2Q,2.06
12,F19D,2.11
13,C15Q,3.22
14,F12S,1.71
15,S6R,3.11
16,P17G,2.03
17,C15T,2.3
18,G22A,2
19,S8D,1.95
20,T21W,2.76
21,S8V,4.76
22,S8R,2.44
23,V20P,1.62
24,D10R,2.56

row,Variant,protein stability index
1,N23G,4.12
2,P17T,3.13
3,G22N,2.16
4,F14E,2
5,P17V,4.75
6,V20N,2.73
7,S8N,2.13
8,S8P,2.35
9,F19Y,1.67
10,F12N,1.61
11,P17L,3.54
12,R4P,1.85
13,F2S,2.01
14,F12H,2.07
15,F9K,2.16
16,F1T,1.8
17,F1Q,1.87
18,P17A,2.74
19,T5H,2.39
20,N23C,3.73
21,D13R,2.26
22,C15S,2.04
23,P17W,4.64
24,S6H,2.91

row,Variant,protein stability index
1,D7K,1.88
2,T5D,2.37
3,S8L,3.06
4,T5R,1.82
5,C24E,2.04
6,C15D,2.14
7,F14L,1.91
8,G22V,4.43
9,D13V,3.37
10,V20H,2.32
11,D7G,2.55
12,N23Q,3.51
13,S8Q,3.03
14,F9Y,2.82
15,F9S,1.66
16,R4H,2.45
17,F14G,1.82
18,F19K,1.95
19,K11D,2.86
20,R4C,3.1
21,K11Q,3.58
22,D10T,2.81
23,R4L,2.8
24,F12Y,2.79

row,Variant,protein stability index
1,D10P,2.94
2,F12G,2.05
3,F19A,1.69
4,S18T,2.54
5,F14Q,1.89
6,C24F,3.29
7,K11T,2.84
8,N23T,2.7
9,G22Y,1.85
10,N23W,2.05
11,D7F,3.74
12,D10Q,2.54
13,F14C,2.76
14,F9C,2.04
15,D7C,2.8
16,T5V,3.03
17,K11G,2.57
18,F19C,1.49
19,D7A,2.62
20,D10E,2.27
21,P17E,2.18
22,C15V,2.05
23,F12L,3.58
24,F2M,1.81

row,Variant,protein stability index
1,D10S,2.22
2,T5M,2.69
3,T21H,1.47
4,K11H,2.24
5,F1A,1.82
6,D13F,3.38
7,D10A,2.7
8,F9Q,1.92
9,R4W,4.04
10,F19H,1.25
11,C24Y,2.53
12,F1E,1.97
13,C15R,2.15
14,N23K,1.75
15,T5F,2.61
16,F2E,2.15
17,E16Y,3.4
18,N23H,2.16
19,F2T,1.76
20,F19I,3.34
21,F9V,1.75
22,V20R,2.53
23,T5L,2.48
24,C15I,3.14

row,Variant,protein stability index
1,N23V,2.89
2,T21N,2.27
3,S6W,2.61
4,S6V,2.23
5,C15P,3.43
6,C24A,2.73
7,T5Y,2.88
8,V20C,2.37
9,G22T,2.24
10,D10W,3.23
11,S6Q,3.19
12,F9D,2.03
13,G22W,3.23
14,C15G,3.49
15,I3G,2.18
16,F19N,1.64
17,F9P,1.28
18,D7I,3.18
19,F9M,2.99
20,F12V,2.47
21,I3F,2.17
22,F19M,1.68
23,T5S,3.67
24,S8F,2.38

row,Variant,protein stability index
1,E16G,2.2
2,R4Q,1.74
3,D13M,2.65
4,D13P,2.4
5,I3S,1.8
6,R4K,1.99
7,S8Y,3.02
8,C24D,1.64
9,R4N,1.65
10,D7R,1.98
11,F14P,2.55
12,C15Y,3.03
13,T5K,2.38
14,T21G,3.28
15,P17H,3.52
16,I3V,2.18
17,F2Y,2.58
18,D10H,2.83
19,F12P,1.61
20,E16F,2.04
21,S18H,3.19
22,S18P,2.57

# Reference: the supplement of paper PMC10567573
